According to publication doi:10.1101/2022.11.30.518472:
Blank lines part the entries; values can stand above or below the substance they belong to.

Key:
[1] = target: Uso1 CCD-His6x (pET21b-Uso1 CCD-His6x), coiled-coil domain (CC + CTR) (Aspergillus nidulans); assay: AUC + other: dynamic light scattering
[2] = target: Bos1-GST (pET21b-Bos1-GST), cytoplasmic domain of Bos1 (Aspergillus nidulans); assay: pull-down
[3] = target: Uso1(E6K/G540S)-His6x, full length (pET21b-Uso1(E6K/G540S)-His6x) (Aspergillus nidulans); assay: AUC + other: dynamic light scattering
[4] = target: Uso1(E6K/G540S)ΔCTR-His6x (pET21b-Uso1(E6K/G540S)ΔCTR-His6x) (Aspergillus nidulans); assay: AUC + other: dynamic light scattering
[5] = target: Uso1-HA3, full length, native protein of Aspergillus (Aspergillus nidulans); assay: SEC
[6] = target: Uso1-His6x, full length (pET21b-Uso1-His6x) (Aspergillus nidulans); assay: SEC
[7] = target: Bet1-GST (pET21b-Bet1-GST), cytoplasmic domain of Bet1 (Aspergillus nidulans); assay: pull-down
[8] = target: Uso1-His6x, full length (pET21b-Uso1-His6x) (Aspergillus nidulans); assay: AUC + other: dynamic light scattering
[9] = target: Uso1ΔCTR-His6x (pET21b-Uso1ΔCTR-His6x) (Aspergillus nidulans); assay: AUC + other: dynamic light scattering

Substance: Uso1 CCD-His6x (pET21b-Uso1 CCD-His6x), coiled-coil domain (CC + CTR) (domain or fragment)
stoichiometry N [1]: 2

Substance: Uso1(E6K/G540S)-His6x, full length (pET21b-Uso1(E6K/G540S)-His6x) (natural protein)
fold increase of the protein retained, against wild-type Uso1 [2]: 5 fold | stoichiometry N [3]: 2

Substance: Uso1(E6K/G540S)ΔCTR-His6x (pET21b-Uso1(E6K/G540S)ΔCTR-His6x) (domain or fragment)
stoichiometry N [4]: 2

Substance: Uso1-HA3, full length, native protein of Aspergillus (natural protein)
stoichiometry N [5]: 2

Now from value to substance:

stoichiometry N [6]: 2 | percent of the prey pulled down [7]: 70% | stoichiometry N [8]: 2
Substance: Uso1-His6x, full length (pET21b-Uso1-His6x) (natural protein)

stoichiometry N [9]: 2
Substance: Uso1ΔCTR-His6x (pET21b-Uso1ΔCTR-His6x) (domain or fragment)
